Test results as given in patent US10428140B2, “Anti-EphA4 antibody” (EISAI R&D MANAGEMENT CO., LTD., priority 2015, dated 2019).
Positions count from the first letter of the chain named.

T1: human EphA10 (Homo sapiens, UniProt Q5JZY3)
T1 construct: a protein of the extracellular region of each human Eph receptor fused with the SEAP protein and the His tag; made in house; host or cells: Expi293F cells (culture supernatant)
T1 sequence (Q5JZY3 34-565 limits assumed): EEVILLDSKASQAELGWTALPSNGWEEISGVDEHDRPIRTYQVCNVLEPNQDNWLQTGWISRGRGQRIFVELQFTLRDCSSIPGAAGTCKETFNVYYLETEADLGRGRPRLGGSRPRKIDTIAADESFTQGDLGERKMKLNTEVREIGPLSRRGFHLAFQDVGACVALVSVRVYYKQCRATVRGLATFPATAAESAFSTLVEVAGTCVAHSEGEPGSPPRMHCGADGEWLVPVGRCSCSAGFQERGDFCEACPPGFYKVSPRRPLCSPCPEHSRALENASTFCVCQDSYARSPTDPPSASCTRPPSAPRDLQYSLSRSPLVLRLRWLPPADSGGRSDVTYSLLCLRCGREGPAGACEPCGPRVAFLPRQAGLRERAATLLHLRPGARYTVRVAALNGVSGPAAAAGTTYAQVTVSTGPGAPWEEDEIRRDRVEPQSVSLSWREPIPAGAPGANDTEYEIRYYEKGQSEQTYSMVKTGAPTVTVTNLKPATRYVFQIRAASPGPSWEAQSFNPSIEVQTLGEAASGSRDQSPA

T2: human EphB6 (Homo sapiens, UniProt O15197)
T2 construct: a protein of the extracellular region of each human Eph receptor fused with the SEAP protein and the His tag; made in house; host or cells: Expi293F cells
T2 sequence (O15197 32-594 limits assumed): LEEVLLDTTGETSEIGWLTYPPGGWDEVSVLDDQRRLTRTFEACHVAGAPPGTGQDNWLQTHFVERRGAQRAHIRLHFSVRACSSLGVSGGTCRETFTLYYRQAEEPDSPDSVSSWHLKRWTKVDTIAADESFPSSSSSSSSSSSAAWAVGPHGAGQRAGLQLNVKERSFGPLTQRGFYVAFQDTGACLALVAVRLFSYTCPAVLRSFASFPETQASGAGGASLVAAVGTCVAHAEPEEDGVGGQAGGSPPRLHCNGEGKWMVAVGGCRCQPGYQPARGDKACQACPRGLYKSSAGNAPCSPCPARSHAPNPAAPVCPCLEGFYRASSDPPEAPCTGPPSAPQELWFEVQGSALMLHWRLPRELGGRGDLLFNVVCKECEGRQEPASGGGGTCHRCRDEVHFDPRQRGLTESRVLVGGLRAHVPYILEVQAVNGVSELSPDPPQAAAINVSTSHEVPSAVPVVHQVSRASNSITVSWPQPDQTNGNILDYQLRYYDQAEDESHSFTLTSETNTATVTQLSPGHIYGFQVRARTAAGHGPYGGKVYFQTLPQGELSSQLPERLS

T3: human EphB4 (Homo sapiens, UniProt P54760)
T3 construct: a protein of the extracellular region of each human Eph receptor fused with the SEAP protein and the His tag; made in house; host or cells: Expi293F cells
T3 sequence (P54760 16-539 limits assumed): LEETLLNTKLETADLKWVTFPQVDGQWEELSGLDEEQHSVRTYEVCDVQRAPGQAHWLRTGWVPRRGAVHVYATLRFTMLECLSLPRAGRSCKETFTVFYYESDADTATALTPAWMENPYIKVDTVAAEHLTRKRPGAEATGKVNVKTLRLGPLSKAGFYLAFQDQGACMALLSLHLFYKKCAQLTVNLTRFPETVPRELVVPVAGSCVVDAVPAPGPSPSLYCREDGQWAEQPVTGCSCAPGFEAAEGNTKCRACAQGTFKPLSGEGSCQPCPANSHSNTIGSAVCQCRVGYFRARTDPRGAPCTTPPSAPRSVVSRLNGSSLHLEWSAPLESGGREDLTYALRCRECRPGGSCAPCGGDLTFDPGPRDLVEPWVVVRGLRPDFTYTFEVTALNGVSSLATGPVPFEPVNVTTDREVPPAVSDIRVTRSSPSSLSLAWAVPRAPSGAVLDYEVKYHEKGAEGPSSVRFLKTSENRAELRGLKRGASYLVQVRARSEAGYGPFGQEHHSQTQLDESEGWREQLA

B1: 73 (antibody, V domains shown)
VH: QIQLVQSGSELKKPGASVKVSCKASGYTFTDYSMHWVRQAPGQGLKWMGWINTETGEPTYADDFKGRFVFSLDTSVSTAYLQISSLKAEDTAVYYCARIPLYYYGSRYWYFDVWGQGTTVTVSS
VL: EIVMTQSPATLSVSPGERATLSCRASENIYRNLAWYQQKPGQSPRLLIYAATNLADGIPARFSGSGSGTEYTLTISSLQSEDFAVYYCQHFWGTPWTFGQGTKVEIK
modifications: synthetic humanized antibody heavy chain variable region sequence; synthetic humanized antibody light chain variable region sequence
B2: 153 (antibody, V domains shown)
VH: B1 VH with I2V, D62Q, D63G, K65T
VL: DIQMTQSPSSLSASVGDRVTITCRASENIYRNLAWYQQKPGKAPKLLLYAATNLADGVPSRFSGSGSGTDYTLTISSLQSEDFATYYCQHFWGTPWTFGQGTKVEIK
modifications: synthetic humanized antibody heavy chain variable region sequence; synthetic humanized antibody light chain variable region sequence
B3: 138 (antibody, V domains shown)
VH: B1 VH with D62Q, D63G, K65T
VL: B2 VL with L48V, S80P
modifications: synthetic humanized antibody heavy chain variable region sequence; synthetic humanized antibody light chain variable region sequence
B4: 140 (antibody, V domains shown)
VH: B1 VH with I2V, D62Q, D63G, K65T
VL: B2 VL with L48V, S80P
modifications: synthetic humanized antibody heavy chain variable region sequence; synthetic humanized antibody light chain variable region sequence
B5: 139 (antibody)
VH: B1 VH with I2V, K46E, D62Q, D63G, K65T
VL: B2 VL with L48V, S80P
chain: ASTKGPSVFPLAPSSRSTSESTAALGCLVKDYFPEPVTVSWNSGALTSGVHTFPAVLQSSGLYSLSSVVTVPSSNFGTQTYTCNVDHKPSNTKVDKTVERKSCVECPPCPAPPAAAPSVFLFPPKPKDTLMISRTPEVTCVVVDVSHEDPEVQFNWYVDGVEVHNAKTKPREEQFNSTFRVVSVLTVVHQDWLNGKEYKCKVSNKGLPAPIEKTISKTKGQPREPQVYTLPPSREEMTKNQVSLTCLVKGFYPSDIAVEWESNGQPENNYKTTPPMLDSDGSFFLYSKLTVDKSRWQQGNVFSCSVMHEALHNHYTQKSLSLSPG
modifications: synthetic humanized antibody heavy chain variable region sequence; synthetic humanized antibody light chain variable region sequence; synthetic antibody constant region sequence
B6: 151 (antibody, V domains shown)
VH: B1 VH with D62Q, D63G, K65T
VL: B2 VL
modifications: synthetic humanized antibody heavy chain variable region sequence; synthetic humanized antibody light chain variable region sequence
B7: 141 (antibody, V domains shown)
VH: B1 VH with I2V, K46E
VL: B2 VL with L48V, S80P
modifications: synthetic humanized antibody heavy chain variable region sequence; synthetic humanized antibody light chain variable region sequence
B8: 152 (antibody, V domains shown)
VH: B1 VH with I2V, K46E, D62Q, D63G, K65T
VL: B2 VL
modifications: synthetic humanized antibody heavy chain variable region sequence; synthetic humanized antibody light chain variable region sequence
B9: 142 (antibody, V domains shown)
VH: B1 VH with I2V
VL: B2 VL with L48V, S80P
modifications: synthetic humanized antibody heavy chain variable region sequence; synthetic humanized antibody light chain variable region sequence
B10: 143 (antibody, V domains shown)
VH: B1 VH
VL: B2 VL with L48V, S80P
modifications: synthetic humanized antibody heavy chain variable region sequence; synthetic humanized antibody light chain variable region sequence

Target: T1, human EphA10
Experiment: Selectivity ELISA of humanized antibodies for human Eph receptor
Format: binding
Details: coated protein 1 nM
Outline: (§1)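 Capture ELISA: anti-6-His coat, 1% BlockAce block, Eph ECD-SEAP-His (1 nM final, Expi293F supernatant) 1 h RT, humanized Ab 1 h RT, HRP anti-IgG 1 h RT, TMB, H2SO4 stop, A450.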

| Molecule | hEphA10-SEAP-: absorbance at 450 nm, percentage with respect to hEphA4-SEAP-His as 100% [%] |
| --- | --- |
| B1 | 5.6 |
| B2 | 6.0 |
| B3 | 5.0 |
| B4 | 5.2 |
| B5 | 5.5 |
| B6 | 6.6 |
| B7 | 5.2 |
| B8 | 5.8 |
| B9 | 5.4 |
| B10 | 5.2 |

Target: T2, human EphB6
Experiment: as above
Format: binding
Details: coated protein 1 nM
Outline: as §1

| Molecule | hEphB6-SEAP-: absorbance at 450 nm, percentage with respect to hEphA4-SEAP-His as 100% [%] |
| --- | --- |
| B1 | 5.6 |
| B2 | 6.2 |
| B3 | 5.0 |
| B4 | 5.2 |
| B5 | 5.9 |
| B6 | 7.1 |
| B7 | 5.4 |
| B8 | 5.9 |
| B9 | 5.6 |
| B10 | 5.6 |

Target: T3, human EphB4
Experiment: as above
Format: binding
Details: coated protein 1 nM
Outline: as §1

| Molecule | hEphB4-SEAP-: absorbance at 450 nm, percentage with respect to hEphA4-SEAP-His as 100% [%] |
| --- | --- |
| B1 | 5.7 |
| B2 | 6.0 |
| B3 | 5.2 |
| B4 | 5.4 |
| B5 | 5.7 |
| B6 | 7.4 |
| B7 | 5.4 |
| B8 | 5.9 |
| B9 | 5.7 |
| B10 | 5.9 |
